For test [1], the target named is full-length LRRK1 (Leucine Rich Repeat Kinase 1) (human) (UniProt Q38SD2). The test can be described thus: cryo-EM structure; 5.2 μM LRRK1(FL) with GDP, 0.06% brij-35 added directly before vitrification; C2 symmetry.
Test [2] has the same target. In words: mass photometry; full-length LRRK1 diluted to 100 nM in 20 mM HEPES pH 7.4, 150 mM NaCl, 2.5 mM MgCl2, 1 mM GDP, 0.5 mM TCEP, 0.5% glycerol; 30 min at room temperature; Refeyn TwoMP; Gaussian fits of the histograms, law of mass action; dimer to monomers; estimated Kd.

pKd: −log10 of the molar value.

As to “full-length LRRK1 (Leucine Rich Repeat Kinase 1), Q38SD2-1 1-2015”, in test [1], the stoichiometry N is 2. The pKd in test [2] is 6.22.

The term stoichiometry N denotes a count of units in the complex or per binding partner. As usually defined, the pKd is the Kd on a negative log10 scale, so that one unit is a factor of ten.

These data come from PMC10643122.
